Measured values from article PMC10897913 (iScience, 2024).

Target: T1, GST-DUB3 (human, UniProt Q6R6M4 1-530)
T1 sequence (looked up): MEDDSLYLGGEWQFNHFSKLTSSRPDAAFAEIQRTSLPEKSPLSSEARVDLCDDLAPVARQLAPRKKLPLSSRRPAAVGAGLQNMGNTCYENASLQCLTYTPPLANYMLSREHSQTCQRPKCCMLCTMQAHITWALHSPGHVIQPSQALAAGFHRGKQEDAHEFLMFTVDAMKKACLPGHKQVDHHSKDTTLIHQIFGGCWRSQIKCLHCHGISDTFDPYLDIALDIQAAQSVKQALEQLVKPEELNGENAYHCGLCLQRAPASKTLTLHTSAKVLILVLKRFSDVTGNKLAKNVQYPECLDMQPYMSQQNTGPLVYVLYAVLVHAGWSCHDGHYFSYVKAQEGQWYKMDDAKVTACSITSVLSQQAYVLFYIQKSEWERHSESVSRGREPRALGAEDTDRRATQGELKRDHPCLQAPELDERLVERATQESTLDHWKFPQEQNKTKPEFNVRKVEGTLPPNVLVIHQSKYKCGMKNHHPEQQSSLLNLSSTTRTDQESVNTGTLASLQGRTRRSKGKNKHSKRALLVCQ
Experiment: pull-down

B1: MAGEA3-His (natural protein, human, UniProt P43357 1-314, looked up)
chain: MPLEQRSQHCKPEEGLEARGEALGLVGAQAPATEEQEAASSSSTLVEVTLGEVPAAESPDPPQSPQGASSLPTTMNYPLWSQSYEDSSNQEEEGPSTFPDLESEFQAALSRKVAELVHFLLLKYRAREPVTKAEMLGSVVGNWQYFFPVIFSKASSSLQLVFGIELMEVDPIGHLYIFATCLGLSYDGLLGDNQIMPKAGLLIIVLAIIAREGDCAPEEKIWEELSVLEVFEGREDSILGDPKKLLTQHFVQENYLEYRQVPGSDPACYEFLWGPRALVETSYVKVLHHMVKISGGPHISYPPLHEWVLREGEE
Q: Does B1 bind?
A: binds
